Experimental data taken from US20180072804A1 (Hoffmann-La Roche, published 2018).
“And” between values parts separate entries of the source, which are not always exact repeats. Identical values can stand only once. Like-named read-outs stand apart in the source and are kept apart here.

Columns and labels:
[1] = biological target: T1, human TIM3, full length, on cells (human, UniProt Q8TDQ0 22-301); assay: cell-based or functional assay
[2] = biological target: monomeric cyno Tim3-ECD (cynomolgus); assay: ELISA on cynomolgus Tim3
[3] = biological target: T2, Tim3-ECD-His-Biotin (human, UniProt Q8TDQ0 22-202, biotinylated with BirA Ligase); assay: ELISA on human Tim3
T2 construct: Coated on streptavidin plates; also called human Tim3 (ELISA); Biochem Human

[4] = biological target: monomeric cyno Tim3-ECD (cynomolgus); assay: SPR, Ab captured on anti-mouse IgG, 25 C
[5] = biological target: cynomolgus TIM-3 on isolated cyno CD14+ monocytes (cynomolgus monkey); assay: FACS, cyno CD14+ monocytes, cyno1 (16719M)
[6] = biological target: cynomolgus TIM-3 on isolated cyno CD14+ monocytes (cynomolgus monkey); assay: FACS, cyno CD14+ monocytes, cyno2 (17435M)
[7] = biological target: cynomolgus TIM-3 on isolated cyno CD14+ monocytes (cynomolgus monkey); assay: FACS, cyno CD14+ monocytes, cyno3 (30085F)
[8] = biological target: T1, human TIM3, full length, on cells; assay: cell ELISA, CHO-K1 with full-length human Tim3
[9] = biological target: T3, monomeric human Tim3-ECD (human, UniProt Q8TDQ0 22-202); assay: SPR, Ab captured on anti-mouse IgG, 25 C
T3 construct: also called huTim3; hu Tim3-ECD

[10] = biological target: T4, Fc-tagged human Tim3-ECD dimer (human, UniProt Q8TDQ0 22-202); assay: SPR, Ab captured on anti-mouse IgG, 25 C
T4 construct: also called huTim3Fc; huFc fused dimeric human Tim3-ECD

[11] = biological target: T1, human TIM3, full length, on cells; assay: FACS competition, RPMI-8226 cells; competitor Tim3_0016
[12] = biological target: T1, human TIM3, full length, on cells; assay: FACS competition, RPMI-8226 cells; competitor Tim3_0018
[13] = biological target: T1, human TIM3, full length, on cells; assay: FACS competition, RPMI-8226 cells; competitor Tim3_0022
[14] = biological target: T1, human TIM3, full length, on cells; assay: FACS competition, RPMI-8226 cells; competitor Tim3_0026
[15] = biological target: T1, human TIM3, full length, on cells; assay: FACS competition, RPMI-8226 cells; competitor Tim3_0028
[16] = biological target: T1, human TIM3, full length, on cells; assay: FACS competition, RPMI-8226 cells; competitor Tim3_0038
[17] = biological target: T1, human TIM3, full length, on cells; assay: FACS, human CD14+ monocytes, donor1, 10 µg/ml
[18] = biological target: T1, human TIM3, full length, on cells; assay: FACS, human CD14+ monocytes, donor2, 10 µg/ml
[19] = biological target: T1, human TIM3, full length, on cells; assay: FACS, human CD14+ monocytes, donor3, 10 µg/ml
[20] = biological target: T1, human TIM3, full length, on cells; assay: FACS, human CD14+ monocytes, donor1, isotype control
[21] = biological target: T1, human TIM3, full length, on cells; assay: FACS, human CD14+ monocytes, donor2, isotype control
[22] = biological target: T1, human TIM3, full length, on cells; assay: FACS, human CD14+ monocytes, donor3, isotype control
[23] = biological target: cynomolgus TIM-3 on isolated cyno CD14+ monocytes (cynomolgus monkey); assay: FACS, cyno CD14+ monocytes, cyno1 (16719M), isotype control
[24] = biological target: cynomolgus TIM-3 on isolated cyno CD14+ monocytes (cynomolgus monkey); assay: FACS, cyno CD14+ monocytes, cyno2 (17435M), isotype control
[25] = biological target: cynomolgus TIM-3 on isolated cyno CD14+ monocytes (cynomolgus monkey); assay: FACS, cyno CD14+ monocytes, cyno3 (30085F), isotype control
[26] = biological target: T1, human TIM3, full length, on cells; assay: cell-based or functional assay; remark: listed apart in the source
[27] = biological target: T1, human TIM3, full length, on cells; assay: cell-based or functional assay; remark: listed apart in the source
[28] = biological target: T1, human TIM3, full length, on cells; assay: cell-based or functional assay; remark: listed apart in the source
[29] = biological target: T2, Tim3-ECD-His-Biotin; assay: ELISA on Tim3-ECD-His-Biotin
Procedure: After washing (3×90 μl/well with PBST-buffer) 25 μl/well sheep-anti-mouse-POD (GE NA9310V) was added in 1:9000 dilution and incubated at RT for 1 h while shaking at 400 rpm rotation. After washing (4×90 μl/well with PBST-buffer) 25 TMB substrate (Calbiochem, #CL07) was added and incubated until OD 1.5-2.5. Then the reaction was stopped by addition of 25 μl/well 1N HCL-solution.

[30] = biological target: T5, cynomolgus TIM-3 on isolated cyno CD14+ monocytes (cynomolgus monkey, UniProt A0A2K5U3G7 22-294); assay: FACS, cyno CD14+ monocytes, cyno1 (16719M)
T5 construct: whole, on cells; also called cyno monocytes expressing TIM-3
T5 sequence: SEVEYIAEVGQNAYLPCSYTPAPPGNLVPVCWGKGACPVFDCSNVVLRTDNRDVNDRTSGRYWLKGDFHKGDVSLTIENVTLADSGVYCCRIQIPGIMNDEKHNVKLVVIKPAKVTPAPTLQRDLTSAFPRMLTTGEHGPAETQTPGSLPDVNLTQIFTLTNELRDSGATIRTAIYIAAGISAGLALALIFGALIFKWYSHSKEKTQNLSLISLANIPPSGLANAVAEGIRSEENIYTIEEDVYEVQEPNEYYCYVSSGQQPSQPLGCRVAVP
Source text: (§1) CD14+ Monocytes were isolated from cynomolgus monkey anticoagulated peripheral blood (Covance) by density gradient centrifugation using Ficoll-Paque (GE Healthcare) (see General Protocols in the User Manuals or visit www.miltenyibiotec.com/protocols) and subsequent positive selection via NHP CD14 MicroBeads. First the CD14+ cells are magnetically labeled with CD14 MicroBeads. Then the cell suspension is loaded onto a MACS® Column which is placed in the magnetic field of a MACS Separator. The magnetically labeled CD14+ cells are retained in the column. The unlabeled cells run through, this cell fraction is depleted of CD14+ cells. After removal of the column from the magnetic field, the magnetically retained CD14+ cells can be eluted as the positively selected cell fraction. After centrifugation at 200×g for 10 min at room temperature the monocytes were harvested and used directly in binding assay or resuspended in freezing medium (10% DMSO, 90% FCS) at 1.0E+07 cells/ml and stored in liquid nitrogen.
(§2) After washing and centrifugation MFI signals of stained cells were analyzed by BD Biosciences FACSCanto flow cytometer.

[31] = biological target: T5, cynomolgus TIM-3 on isolated cyno CD14+ …; assay: FACS, cyno CD14+ monocytes, cyno2 (17435M)
Source text: as §1, §2

[32] = biological target: T5, cynomolgus TIM-3 on isolated cyno CD14+ …; assay: FACS, cyno CD14+ monocytes, cyno3 (30085F)
Source text: as §1, §2

[33] = biological target: T1, human TIM3, full length, on cells; assay: cell ELISA, CHO-K1 with full-length human Tim3
Procedure: Then the reaction was stopped by addition of 25 μl/well 1N HCL-solution.

[34] = biological target: T1, human TIM3, full length, on cells; assay: cell ELISA, CHO-K1 with full-length human Tim3; remark: listed apart in the source
[35] = biological target: T4, Fc-tagged human Tim3-ECD dimer; assay: SPR, Ab captured on anti-mouse IgG, dimeric Tim3-ECD-Fc
Procedure: Therefore, an anti-mouse IgG was immobilized by amine coupling to the surface of a (BIAcore) CMS sensor chip. […] The sensor chip surface was regenerated after each analysis cycle. The equilibrium constant KD was finally gained by fitting the data to a 1:1 Langmuir interaction model.
The samples were injected for 30 seconds with a concentration of 200 μg/ml and bound to the spots 1 and 5 of each flow cell, allowing the measurement of eight samples in parallel. […] The flow rate was set to 30 μl/min for the whole run.
Finally the double referenced data was fitted to a 1:1 Langmuir interaction model with the BIAcore B4000 Evaluation Software.

[36] = biological target: T3, monomeric human Tim3-ECD; assay: SPR, Ab captured on anti-mouse IgG, monomeric Tim3-ECD; monomer Tim3, not the Fc-tagged dimer

Molecule: anti-human TIM-3 mouse monoclonal antibody clone F38-2E2
- IFNgamma release in MLR, % of rec hu IL-2 control, 1 µg/ml [1]: 7%
- IFNgamma release in MLR, % of rec hu IL-2 control, 10 µg/ml [1]: 26%
- IFNgamma release in MLR, % of rec hu IL-2 control, 40 µg/ml [1]: 36%
- EC50 [2]: 0.423 µg/mL
- Inflexion point [2]: 210000 ng/mL
- EC50 [3]: 0.0732 µg/mL
- Inflexion point [3]: 88.3 ng/mL
- Kd [4]: 168 nM
- Specific Binding [MFI] [5]: 135 MFI
- Specific Binding [MFI] [6]: 136 MFI
- Specific Binding [MFI] [7]: 124 MFI
- EC50 [8]: 0.15 µg/mL
- Inflexion point [8]: 224 ng/mL
- Kd [9]: 13.6 nM
- Kd [10]: 7.5 nM
- Max % Inhibition of Binding [11]: -7%
- Max % Inhibition of Binding [12]: 6%
- Max % Inhibition of Binding [13]: 77%
- Max % Inhibition of Binding [14]: 2%
- Max % Inhibition of Binding [15]: 75%
- Max % Inhibition of Binding [16]: 94%
- Specific Binding [MFI] [17]: 516 MFI
- Specific Binding [MFI] [18]: 493 MFI
- Specific Binding [MFI] [19]: 460 MFI

Molecule: anti-human TIM-3 rat monoclonal antibody clone 344823 (R&D Systems)
- Specific Binding [MFI] [5]: 158 MFI
- Specific Binding [MFI] [6]: 121 MFI
- Specific Binding [MFI] [7]: 143 MFI
- Max % Inhibition of Binding [11]: 0%
- Max % Inhibition of Binding [12]: 0%
- Max % Inhibition of Binding [13]: 102%
- Max % Inhibition of Binding [14]: 3%
- Max % Inhibition of Binding [15]: 107%
- Max % Inhibition of Binding [16]: 99%
- Specific Binding [MFI] [17]: 1010 MFI
- Specific Binding [MFI] [18]: 917 MFI
- Specific Binding [MFI] [19]: 814 MFI

Molecule: Rat-IgG2A isotype control (antibody)
- Specific Binding [MFI] [20]: 71 MFI
- Specific Binding [MFI] [21]: 68 MFI
- Specific Binding [MFI] [22]: 70 MFI
- Specific Binding [MFI] [23]: 84 MFI
- Specific Binding [MFI] [24]: 86 MFI
- Specific Binding [MFI] [25]: 91 MFI

Molecule: M-IgG1 isotype control (antibody)
- Specific Binding [MFI] [20]: 144 MFI
- Specific Binding [MFI] [21]: 55 MFI
- Specific Binding [MFI] [22]: 213 MFI
- Specific Binding [MFI] [23]: 72 MFI
- Specific Binding [MFI] [24]: 82 MFI
- Specific Binding [MFI] [25]: 83 MFI

B1: Fab-PE24 construct of anti-TIM3 antibody Tim3_0033 (Fab, V domains shown)
VH: QGQMHQSGAELVKPGSSVKLSCKTSGFTFSSSFISWLKQKPGQSLEWIAWIYAATGSTSYNQKFTNKAQLTVDTSSSAAYMQFSSLTTEDSAIYYCARHAGYPHYYAMDYWGQGTSVTVSS
VL: DIQMTQSPASLSASVGETVTITCRASENIFSNLAWYQQKQGKSPQLLVYSATNLGDGVPSRFSGSGSGTQFSLKINSLQPEDFGNYYCQHFYKIPFTFGTGTKLEIK
- Max. killing, Pfeiffer cells [26]: 99.8%
- Max. killing, RPMI-8226 cells [26]: 99.7%

B2: Fab-PE24 construct of anti-TIM3 antibody Tim3_0021 (Fab, V domains shown)
VH: QVQLQQSGPQLVRPGASVQISCKASGYSFTSYLLHWLKQRPGQGLEWIGMIDPSDSETRLNQKFKDKATLTVDKSSSTAYMQLSSPTSEDSAVYYCARDGYYAWYYFDCWGQGTTLTVSS
VL: DIVLTQSPATLSVTPGDRVSLSCRASQSIGNNLHWYQQKSHESPRLLIKYASHSISGIPSKFSGTGSGTDFTLSFNSVETEDFGMYFCQQSNSWPLTFGAGTKLELK
- Max. killing, Pfeiffer cells [26]: 98.4%

B3: Tim3_0026, full length human IgG1 format (antibody, V domains shown)
VH: QIQLVQSGPELKKPGETVKISCKASGYTFTDYSMHWVKQAPGRGLKWMGYINTETYEPTFGADFKGRFAFSLDTSATTAYLQINSLKTEDTATFFCGGGGYPAYWGQGTVVIVSA
VL: DVLMTQTPLSLPVSLGDQASISCRSSRTILHSSGNTYLEWYLQKPGQSPKLLIYKVSNRFSGVPDRFSGSGSGTDFTLNISRVEAEDLGVYYCFQDSHVPFTFGTGTKLEIK
- Max. killing, Pfeiffer cells, with anti-human Fc Fab PE24 [27]: 78.3%
- Max. killing, RPMI-8226 cells, with anti-human Fc Fab PE24 [27]: 83.1%
- Rel. IC50, Pfeiffer cells, with anti-human Fc Fab PE24 [27]: < 0.02 nM

B4: anti-TIM3 antibody Tim3_0016 variant (Tim3_0018) (antibody, V domains shown)
VH: QVTLKESGPGILQPSQTLSLTCSFSGFSLSTSGMSVGWIRQPSGKGLEWLAHIWLNDDVFFNPALKRRLTISKDTSNNQVFLQIASVVTADTATYYCVRANGYLYALDYWGQGISVTVSS
VL: QIVLTQSPAIMSASPGQKVTITCSASSSVNYTQWYQQKLGSSPKLWIYDAFKLAPGVPARFSGSGTGTSYSLTISSMEAEDAASYFCHQWSSYPWTFGGGTKLEIK
notes: Mouse monoclonal from hybridoma; also called TIM3-0016 variant (0018); Tim3_0016 variant 0018-A488
- EC50 [2]: 0.0146 µg/mL
- Inflexion point [2]: 14.6 ng/mL
- EC50 [3]: 0.0151 µg/mL
- Inflexion point [3]: 15.3 ng/mL
- IFNgamma release in MLR, % of rec hu IL-2 control, 1 µg/ml [28]: 12%
- IFNgamma release in MLR, % of rec hu IL-2 control, 10 µg/ml [28]: 30%
- IFNgamma release in MLR, % of rec hu IL-2 control, 40 µg/ml [28]: 36%
- EC50 [29]: 0.56 nM and 0.094 µg/mL
- Kd [4]: 41.9 nM
- Kd [9]: 3.4 nM
- Kd [10]: 1.11 nM
- Specific Binding [MFI] [30]: 301 MFI
- Specific Binding [MFI] [31]: 480 MFI
- Specific Binding [MFI] [32]: 417 MFI
- Specific Binding [MFI] [17]: 2330 MFI
- Specific Binding [MFI] [18]: 1820 MFI
- Specific Binding [MFI] [19]: 1940 MFI
- EC50 [33]: 0.52 nM and 0.087 µg/mL
- EC50 [34]: 0.0264 µg/mL
- Inflexion point [34]: 29.4 ng/mL
- Kd [35]: 1.1 nM
- Kd [36]: 3.4 nM
